From PMC8437803, “Structural basis of RNA processing by human mitochondrial RNase P” (Nature Structural & Molecular Biology, 2021)

Target: T1, Δ1–45 PRORP (human, UniProt O15091 46-583)
T1 construct: PRORP (MRPP3), human, without the predicted mitochondrial targeting signal (residues 1-45); also called MRPP3; Δ45-PRORP; source: E. coli BL21 (DE3) RIL, purified (HisTrap, TEV cleavage, heparin, Superdex 200); not shown: His6, N-terminal, cleaved
T1 sequence (looked up): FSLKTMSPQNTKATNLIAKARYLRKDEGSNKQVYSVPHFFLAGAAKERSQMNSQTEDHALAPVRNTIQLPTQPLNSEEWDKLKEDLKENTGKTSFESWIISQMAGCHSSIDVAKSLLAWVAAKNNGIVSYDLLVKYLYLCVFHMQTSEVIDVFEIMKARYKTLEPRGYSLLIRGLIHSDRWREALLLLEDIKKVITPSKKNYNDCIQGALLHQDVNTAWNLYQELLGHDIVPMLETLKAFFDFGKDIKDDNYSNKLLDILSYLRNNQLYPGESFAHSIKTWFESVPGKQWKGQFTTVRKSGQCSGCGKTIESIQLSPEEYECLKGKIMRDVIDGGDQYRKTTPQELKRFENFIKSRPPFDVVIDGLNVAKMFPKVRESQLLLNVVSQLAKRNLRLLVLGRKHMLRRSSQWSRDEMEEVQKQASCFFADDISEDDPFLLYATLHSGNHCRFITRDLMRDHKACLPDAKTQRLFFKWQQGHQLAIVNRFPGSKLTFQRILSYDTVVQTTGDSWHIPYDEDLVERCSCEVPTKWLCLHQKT
Assay: cryo-EM structure; Δ1–39 TRMT10C–SDR5C1 complex mixed with pre-tRNA^Tyr and NADH, then PRORP added, 30 °C, 100 mM Tris-HCl pH 8.0, 100 mM NaCl, 250 μM EDTA (Mg2+-depleted), 2 mM DTT; complex purified on Superdex 200 Increase 3.2/300; single-particle cryo-EM, 3.0 Å
Details: both partners purified

B1: Δ1–39 TRMT10C (enzyme, human, UniProt Q7L0Y3 40-403, looked up)
chain: MSSKIPAVTYPKNESTPPSEELELDKWKTTMKSSVQEECVSTISSSKDEDPLAATREFIEMWRLLGREVPEHITEEELKTLMECVSNTAKKKYLKYLYTKEKVKKARQIKKEMKAAAREEAKNIKLLETTEEDKQKNFLFLRLWDRNMDIAMGWKGAQAMQFGQPLVFDMAYENYMKRKELQNTVSQLLESEGWNRRNVDPFHIYFCNLKIDGALHRELVKRYQEKWDKLLLTSTEKSHVDLFPKDSIIYLTADSPNVMTTFRHDKVYVIGSFVDKSMQPGTSLAKAKRLNLATECLPLDKYLQWEIGNKNLTLDQMIRILLCLKNNGNWQEALQFVPKRKHTGFLEISQHSQEFINRLKKAKT
notes: TRMT10C (MRPP1), human, without the predicted mitochondrial targeting signal (residues 1-39); 6x His tag and TEV site on TRMT10C only; tag cleaved by TEV protease during purification; also called MRPP1; Δ39 TRMT10C; source: E. coli BL21 (DE3) RIL, coexpressed with SDR5C1, copurified (HisTrap, TEV cleavage, heparin, Superdex 200); not shown: His6, N-terminal, cleaved
- binding result: binds
